Source: US20250289894A1 (MORPHIC THERAPEUTIC, published 2025)
Substitutions are numbered along the chain they refer to. Like-named read-outs stand apart in the source and are kept apart here.

T1: Cynomolgus Monkey Leg α7 (cynomolgus monkey, UniProt A0A2K5UNI0 679-1078)
T1 construct: domain: Leg α7
T1 sequence: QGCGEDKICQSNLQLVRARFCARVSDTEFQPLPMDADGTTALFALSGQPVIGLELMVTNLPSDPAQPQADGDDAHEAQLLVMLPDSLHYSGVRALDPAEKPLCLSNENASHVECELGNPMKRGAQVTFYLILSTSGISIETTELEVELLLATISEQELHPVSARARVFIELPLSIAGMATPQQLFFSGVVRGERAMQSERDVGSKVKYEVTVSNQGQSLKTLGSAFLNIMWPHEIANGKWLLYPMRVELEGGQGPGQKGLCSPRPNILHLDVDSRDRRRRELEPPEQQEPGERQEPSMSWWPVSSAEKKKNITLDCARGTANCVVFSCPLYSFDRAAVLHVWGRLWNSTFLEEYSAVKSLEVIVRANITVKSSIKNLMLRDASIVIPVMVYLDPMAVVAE

T2: Mouse Leg α7 (mouse, UniProt Q61738 679-1076, limits assumed)
T2 construct: domain: Leg α7
T2 sequence (looked up): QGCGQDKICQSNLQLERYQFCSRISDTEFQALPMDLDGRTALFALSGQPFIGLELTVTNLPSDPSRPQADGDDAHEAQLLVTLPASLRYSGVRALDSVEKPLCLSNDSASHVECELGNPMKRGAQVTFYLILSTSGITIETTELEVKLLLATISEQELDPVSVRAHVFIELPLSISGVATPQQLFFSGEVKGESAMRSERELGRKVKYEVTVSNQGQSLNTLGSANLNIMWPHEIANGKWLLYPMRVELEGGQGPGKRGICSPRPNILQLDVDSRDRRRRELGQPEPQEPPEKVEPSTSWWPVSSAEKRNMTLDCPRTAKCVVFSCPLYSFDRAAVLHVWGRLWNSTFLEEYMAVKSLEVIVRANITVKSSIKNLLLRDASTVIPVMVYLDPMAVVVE

T3: Human Leg α7 (human, UniProt Q13683 679-1078)
T3 construct: also called human α7 leg; leg domain of human α7
T3 sequence: T1 sequence with A22T, A36V, T180I, K220R, R246Q, I384T

T4: Human a7 Genu Calf 1-2 (human, UniProt Q13683 679-1078, limits assumed)
T4 construct: domain: Genu Calf 1-2
T4 sequence (looked up): T1 sequence with A22T, A36V, T180I, K220R, R246Q, I384T

T5: human α7 calf-1 protein (human, UniProt Q13683 688-848)
T5 construct: also called Calf-1 domain
T5 sequence: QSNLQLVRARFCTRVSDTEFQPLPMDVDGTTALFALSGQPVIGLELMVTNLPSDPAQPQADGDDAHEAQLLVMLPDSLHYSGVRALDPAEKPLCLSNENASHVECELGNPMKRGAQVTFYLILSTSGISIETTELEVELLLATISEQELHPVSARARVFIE

B1: Ab8 (antibody, V domains shown)
VH: QVPLQQSGPQLVRPGASVKISCKASGYSFTRYWMHWVKQRPGQGLDWIGKIDPSDSETRLNQEFRDKATLTVDKSSSTAYLQLSSPTSEDSAVYYCARGGYFGEGWYFDVWGAGTTVTVSS
VL: DVVMTQIPLSLPVSLGDQASISCRSSQSLVHRNGNTYLHWYLQKPGQSPKLLIYKVSNRFSGVPDRFSGSGSGTDFTLKISRVEAEDLGVYFCSQSTHVPWTFGGGTKLEIK
notes: Mouse anti-α7β1 antibody (hybridoma, α7 knock-out mouse); also called AbS
B2: Ab28 (antibody, human IgG1, lambda, L234A L235A)
heavy: EVQLVESGGGLVKPGGSLRLSCAASGFTFSSYTMNWVRQAPGKGLEWVSSISIVGNYIYYADSLKGRFTISRDNAKNSLYLQMNSLRAEDTAVYYCARRKWEHDAFDIWGQGTMVTVSSASTKGPSVFPLAPSSKSTSGGTAALGCLVKDYFPEPVTVSWNSGALTSGVHTFPAVLQSSGLYSLSSVVTVPSSSLGTQTYICNVNHKPSNTKVDKKVEPKSCDKTHTCPPCPAPEAAGGPSVFLFPPKPKDTLMISRTPEVTCVVVDVSHEDPEVKFNWYVDGVEVHNAKTKPREEQYNSTYRVVSVLTVLHQDWLNGKEYKCKVSNKALAAPIEKTISKAKGQPREPQVYTLPPSRDELTKNQVSLTCLVKGFYPSDIAVEWESNGQPENNYKTTPPVLDSDGSFFLYSKLTVDKSRWQQGNVFSCSVLHEALHSHYTQKSLSLSPG
light: SSELTQDPAVSVALGQTVRITCQGDSLRSYYASWYQQKPGQAPVLVIYGKNNRPSGIPDRFSGSSSGNTASLTITGAQAEDEADFYCTSRDNSGNHVVFGGGTKLTVLGQPKAAPSVTLFPPSSEELQANKATLVCLISDFYPGAVTVAWKADSSPVKAGVETTTPSKQSNNKYAASSYLSLTPEQWKSHKSYSCQVTHEGSTVEKTVAPTECS
B3: Ab29 (antibody, human IgG1, lambda, L234A L235A)
heavy: B2 heavy with M254Y, S256T, T258E, L430M, S436N
light: B2 light
B4: Ab2 (antibody, V domains shown)
VH: EVQLVESGGGLVKPGGSLRLSCAASGFTFSSYTMNWVRQAPGKGLEWVSSISIVGNYIYYADSLKGRFTISRDNAKNSLYLQMNSLRAEDTAVYYCARRKWEHDAFDIWGQGTMVTVSS
VL: SSELTQDPAVSVALGQTVRITCQGDSLRSYYASWYQQKPGQAPVLVIYGKNNRPSGIPDRFSGSSSGNTASLTITGAQAEDEADFYCTSRDNSGNHVVFGGGTKLTVL
notes: Human anti-α7β1 antibody (hybridoma, human transgenic mouse); Ab28 and Ab29 are full chains with the same CDRs

How the values were obtained:
Human α7β1 (human) [1] = target: Human α7β1 (human) (UniProt Q13683); experiment: cell-based or functional assay
[2] = target: Mouse α7β1 Ecto Domain (mouse) (UniProt Q61738); experiment: cell-based or functional assay
[3] = target: Human α7β1 Ecto Domain (human) (UniProt Q13683); experiment: cell-based or functional assay
Mouse α7β1 [4] = target: T6, Mouse α7β1 (mouse, UniProt Q61738 34-1179; P09055 21-798); experiment: cell binding, mouse α7β1 cells, with Mn-BOP
T6 construct: whole, on cells; also called mouse α7β1 cells

Cynomolgus Monkey Leg α7 = target: T1, Cynomolgus Monkey Leg α7; experiment: SPR
Mouse Leg α7 = target: T2, Mouse Leg α7; experiment: SPR
Human Leg α7 = target: T3, Human Leg α7; experiment: SPR
[5] = target: T7, Cynomolgus Monkey α7β1 Ecto Domain (cynomolgus monkey, UniProt A0A2K5UNI0 34-1082; H9FU31 21-728); experiment: SPR
T7 construct: extracellular domain; Heterodimer

Mouse α7β1 [6] = target: T6, Mouse α7β1; experiment: cell-based or functional assay
Cynomolgus Monkey α7β1 = Cynomolgus Monkey α7β1 (cynomolgus monkey, UniProt A0A2K5UNI0 34-1181; H9FU31 21-798); experiment: cell-based or functional assay
Human α7β1 (human) [7] = target: Human α7β1 (human) (UniProt Q13683); experiment: cell binding, DMD myoblast cells, with Mn-BOP
[8] = target: Mouse α7β1 Ecto Domain (mouse) (UniProt Q61738); experiment: SPR
[9] = target: Human α7β1 Ecto Domain (human) (UniProt Q13683); experiment: SPR
Human a7b1 Ecto (X2B) = target: T8, Human a7b1 Ecto (X2B) (human, UniProt P05556 21-728); experiment: SPR
T8 construct: extracellular domain

Human a7 Genu Calf 1-2 = target: T4, Human a7 Genu Calf 1-2; experiment: SPR
human α7 calf-1 protein = target: T5, human α7 calf-1 protein; experiment: binding ELISA, panel 'Human a7 Calf1 vs Ab2'
Human α7β1 (human) [10] = target: Human α7β1 (human) (UniProt Q13683); experiment: cell-based or functional assay; remark: listed apart in the source

T6 sequence (Q61738 34-1179, chain 1 of 2): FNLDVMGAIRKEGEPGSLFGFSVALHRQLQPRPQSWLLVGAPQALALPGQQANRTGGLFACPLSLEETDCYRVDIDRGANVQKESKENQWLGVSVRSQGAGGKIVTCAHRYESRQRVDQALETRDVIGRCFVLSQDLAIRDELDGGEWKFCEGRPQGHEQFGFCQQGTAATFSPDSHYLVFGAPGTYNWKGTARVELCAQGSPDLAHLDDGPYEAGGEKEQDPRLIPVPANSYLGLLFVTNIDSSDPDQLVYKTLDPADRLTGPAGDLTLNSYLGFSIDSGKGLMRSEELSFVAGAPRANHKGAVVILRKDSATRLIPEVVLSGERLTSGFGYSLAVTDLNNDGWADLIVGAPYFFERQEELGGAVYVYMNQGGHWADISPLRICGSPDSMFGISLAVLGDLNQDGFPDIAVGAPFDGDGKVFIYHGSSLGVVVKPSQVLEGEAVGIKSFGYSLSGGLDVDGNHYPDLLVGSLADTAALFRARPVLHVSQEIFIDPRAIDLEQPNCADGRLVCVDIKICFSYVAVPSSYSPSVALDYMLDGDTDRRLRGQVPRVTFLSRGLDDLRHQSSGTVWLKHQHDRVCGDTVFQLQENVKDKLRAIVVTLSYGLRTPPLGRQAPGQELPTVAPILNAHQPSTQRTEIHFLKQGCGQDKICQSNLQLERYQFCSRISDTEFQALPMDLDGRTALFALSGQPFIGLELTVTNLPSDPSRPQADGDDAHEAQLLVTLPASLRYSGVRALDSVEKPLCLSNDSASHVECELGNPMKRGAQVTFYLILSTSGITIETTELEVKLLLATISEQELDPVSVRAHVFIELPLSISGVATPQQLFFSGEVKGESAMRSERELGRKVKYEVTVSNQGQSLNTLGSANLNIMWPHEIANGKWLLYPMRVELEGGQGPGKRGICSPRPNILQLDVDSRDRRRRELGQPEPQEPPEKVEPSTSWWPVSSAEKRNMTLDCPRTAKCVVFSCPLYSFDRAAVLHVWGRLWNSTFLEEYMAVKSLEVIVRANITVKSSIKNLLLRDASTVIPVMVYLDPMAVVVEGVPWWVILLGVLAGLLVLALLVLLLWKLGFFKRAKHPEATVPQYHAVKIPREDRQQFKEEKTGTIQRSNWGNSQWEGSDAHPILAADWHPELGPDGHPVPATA
T6 sequence (P09055 21-798, chain 2 of 2): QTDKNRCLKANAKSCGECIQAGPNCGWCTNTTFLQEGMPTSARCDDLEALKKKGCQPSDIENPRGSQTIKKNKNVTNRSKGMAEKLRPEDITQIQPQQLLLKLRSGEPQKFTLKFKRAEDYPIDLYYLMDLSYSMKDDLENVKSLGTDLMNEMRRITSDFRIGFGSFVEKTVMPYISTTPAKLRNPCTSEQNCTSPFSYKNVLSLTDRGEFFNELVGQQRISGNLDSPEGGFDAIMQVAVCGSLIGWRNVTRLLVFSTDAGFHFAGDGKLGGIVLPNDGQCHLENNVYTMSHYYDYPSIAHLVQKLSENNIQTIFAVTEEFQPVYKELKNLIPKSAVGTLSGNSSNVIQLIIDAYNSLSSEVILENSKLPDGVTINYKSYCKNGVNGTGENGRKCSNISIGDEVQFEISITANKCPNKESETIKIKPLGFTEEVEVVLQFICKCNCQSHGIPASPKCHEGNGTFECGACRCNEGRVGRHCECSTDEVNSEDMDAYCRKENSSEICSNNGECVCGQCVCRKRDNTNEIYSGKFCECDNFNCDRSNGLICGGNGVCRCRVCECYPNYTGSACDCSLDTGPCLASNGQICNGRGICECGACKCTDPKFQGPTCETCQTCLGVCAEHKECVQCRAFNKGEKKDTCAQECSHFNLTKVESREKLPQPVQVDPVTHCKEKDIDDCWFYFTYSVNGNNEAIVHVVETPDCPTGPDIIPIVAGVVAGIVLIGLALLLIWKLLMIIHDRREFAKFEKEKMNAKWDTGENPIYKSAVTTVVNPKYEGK
T8 sequence (P05556 21-728): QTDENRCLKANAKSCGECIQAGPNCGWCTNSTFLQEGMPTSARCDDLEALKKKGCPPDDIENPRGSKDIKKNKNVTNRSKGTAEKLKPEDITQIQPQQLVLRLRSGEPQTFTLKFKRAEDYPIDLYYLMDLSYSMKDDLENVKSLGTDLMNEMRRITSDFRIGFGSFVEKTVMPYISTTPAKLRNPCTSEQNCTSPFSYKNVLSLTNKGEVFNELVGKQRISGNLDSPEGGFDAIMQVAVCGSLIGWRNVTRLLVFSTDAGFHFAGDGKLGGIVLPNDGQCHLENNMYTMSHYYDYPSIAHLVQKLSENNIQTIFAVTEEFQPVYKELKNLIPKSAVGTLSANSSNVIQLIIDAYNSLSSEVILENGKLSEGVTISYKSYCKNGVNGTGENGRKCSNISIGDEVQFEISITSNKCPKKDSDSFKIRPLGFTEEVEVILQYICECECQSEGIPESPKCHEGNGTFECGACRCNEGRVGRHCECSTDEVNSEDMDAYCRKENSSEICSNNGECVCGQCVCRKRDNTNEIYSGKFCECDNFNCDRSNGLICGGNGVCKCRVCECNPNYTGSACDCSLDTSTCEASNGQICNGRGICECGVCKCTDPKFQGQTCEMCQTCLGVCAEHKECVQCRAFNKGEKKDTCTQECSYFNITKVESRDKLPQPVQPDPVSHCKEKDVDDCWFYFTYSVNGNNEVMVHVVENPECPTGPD

| Binder | EC50 (nM), ECIS, DMD-1 myoblast cells (Human α7β1 (human) [1]) [nM] | EC50 (nM), ECIS, DMD-2 myoblast cells (Human α7β1 (human) [1]) [nM] | EC50 (nM), ECIS, Non-DMD myoblast cells (Human α7β1 (human) [1]) [nM] | Emax (% of RefAb1), ECIS, DMD-1 myoblast cells (Human α7β1 (human) [1]) | Emax (% of RefAb1), ECIS, DMD-2 myoblast cells (Human α7β1 (human) [1]) | Emax (% of RefAb1), ECIS, Non-DMD myoblast cells (Human α7β1 (human) [1]) | Emax (%*), Cell Adhesion Assay (Human α7β1 (human) [1]) [%] | Emax (%*), Solid Phase Assay [3] [%] | Kd (Cynomolgus Monkey Leg α7) [nM] | Kd (Human Leg α7) [nM] | Kd [5] [nM] | EC50 (nM), Cell Adhesion Assay (Cynomolgus Monkey α7β1) [nM] | Emax (%*), Cell Adhesion Assay (Cynomolgus Monkey α7β1) [%] | EC50 (Human α7β1 (human) [7]) [nM] | Kd [9] [nM] | Kd (Human a7b1 Ecto (X2B)) [nM] | Kd (Human a7 Genu Calf 1-2) [nM] | also measured |
| --- | --- | --- | --- | --- | --- | --- | --- | --- | --- | --- | --- | --- | --- | --- | --- | --- | --- | --- |
| B1 | 10 | 32 | 41.6 | 264 % of RefAb1 | 130 % of RefAb1 | 100 % of RefAb1 | 117 | 89 | 32.3 | 25 | 225 | 1.69 | 102 | 32.6 | 184 | – | – | EC50 (nM), Cell Adhesion Assay (K562 cells expressing α7β1 on laminin-221) (Human α7β1 (human) [1]): 3.94 nM; EC50 (nM), Solid Phase Assay [2]: 1.55 nM; Emax (%*), Solid Phase Assay [2]: 148%; EC50 (nM), Solid Phase Assay (6xHis α7β1 ectodomain on coated laminin-221) [3]: 0.77 nM; EC50 (Mouse α7β1 [4]): 22.6 nM; Kd (Mouse Leg α7): 1.42 nM; EC50 (nM), Cell Adhesion Assay (Mouse α7β1 [6]): 3.82 nM; Emax (%*), Cell Adhesion Assay (Mouse α7β1 [6]): 144%; Kd [8]: 5.46 nM |
| B2 | – | – | – | – | – | – | – | – | – | – | – | – | – | – | – | 7.3 | 1.3 | – |
| B3 | – | – | – | – | – | – | – | – | – | – | – | – | – | – | – | 8.9 | 3.6 | – |
| B4 | 14.8 | 41.1 | 23.3 | 289 % of RefAb1 | 240 % of RefAb1 | 124 % of RefAb1 | 122 | 97 | 19.4 | 1.58 | 23 | 3.31 | 115 | 41.1 | 5.69 | – | – | binding result (human α7 calf-1 protein): no binding; EC50 (nM), Cell Adhesion Assay (Human α7β1 (human) [1]): 5.1 nM; EC50 (nM), a7b1 activation assay (Human α7β1 (human) [1]): 2.91 nM; EC50 (ug/mL), a7b1 activation assay (Human α7β1 (human) [1]): 0.44 µg/mL; Emax (% TS2/16), a7b1 activation assay (Human α7β1 (human) [1]): 117 % TS2/16; Emax (F.C.), a7b1 activation assay (Human α7β1 (human) [1]): 2.75 F.C.; EC50 (nM), Solid Phase Assay [3]: 0.4 nM; binding result (Mouse Leg α7): no binding; EC50 (nm), a7b1 activation assay (Human α7β1 (human) [10]): 2.8 nM; EC50 (ug/mL), a7b1 activation assay (Human α7β1 (human) [10]): 0.42 µg/mL; Emax (% TS2/16), a7b1 activation assay (Human α7β1 (human) [10]): 100 % TS2/16; Emax (F.C.), a7b1 activation assay (Human α7β1 (human) [10]): 2.09 F.C. |
